Values belong to the molecule of their own block, whether it stands above or below them.
Columns and labels:
[1] = FFAu profiles in plasma of rats infused with nicotinic acid and different oils; type: in vivo; details: rat plasma
Protocol: The 5 panels from top to bottom are: A: saline, B: nicotinic acid, C: nicotinic acid+safflower oil, D: nicotinic acid+olive oil, and E: nicotinic acid+coconut oil.
That the FFAu profiles are determined accurately by the method of the present invention is determined by infusing into the blood circulation, of animals and potentially in human subjects, oil/lipid emulsions of known composition, together with heparin. The oils are hydrolyzed by lipoprotein lipases that are released from the capillary endothelial cells by heparin. This lipase activity releases FFAu from the oil that is characteristic of the oil's known composition. Comparing FFAu profiles determined before and after infusion allows determination of the oil composition overlayed on the plasma matrix. Comparing results with different oils and at different levels assesses the validity of the method for determining FFAu profiles in blood samples (for example FIG. 2).
Results are averages of 7 animals for each condition. Nicotinic acid inhibits hormone sensitive lipase (HSL) in adipose tissue resulting in a reduction in circulating FFA levels. Whereas infusion of emulsions of oils of different compositions, together with heparin to activate lipoprotein lipase, will result in the increase of plasma FFA that reflect the composition of the infused oils. When infused together NA and oils results in FFAu profiles that are a conflation of the two effects. […] Adding NA reduces all FFAu except AA which becomes the dominant fraction at nearly 50%. […] NA plus coconut oil results in LAU and MA contributing over 90% of the total FFAu (total FFAu=sum of the concentrations of each of the 9 resolved FFAu). NA plus olive oil results in OA as the dominant FFAu but just barely because NA reduces baseline OA to zero and baseline LA is substantially larger than OA. Thus the FFAu profiles that result from NA plus oil are consistent with the conflation of the two effects. […] Whereas the amount of safflower and coconut oil infused increased the total FFAu to 42 and 92 nM, respectively, consistent with their dominant effects as compared to olive oil (FFAu total=8 nM).

human serum albumin = human serum albumin (Homo sapiens, UniProt P02768); experiment: FFAu profile in artificial plasma (FFA mixed with fatty acid free human serum albumin); type: binding; details: artificial plasma: defined FFA mix with fatty acid free HSA in Measuring buffer
Text: To determine if the low unbound POA levels were due to an interaction with some component of the blood sample matrix an artificial plasma was generated by mixing well defined amounts of the FFA used in Table 4 to fatty acid free human serum albumin in Measuring buffer.

[2] = Probe calibration by titration with FFA / FFA-BSA complexes: SA; type: binding; details: equilibrium dissociation constant of probe for SA; read-out: Kd SA
Protocol: (§1) Calibration: Each probe is calibrated to the extent that the constants in Equation 2 are well determined for all FFAu to be included in profile calculations. Equation 2, which is the form of equation 1 for a single FFAu, relates the FFAu concentration to the equilibrium dissociation constant (Kd), fluorometric constants (Q and Rm) and the measured R values.
(§2) The calibration parameters are determined essentially as described in U.S. Pat. No. 7,601,510 which is incorporated herein by reference and (Huber et al Biochemistry (2006) 45:14263-14274) where the calibrated ADIFAB2 probe was used to generate FFA-BSA complexes with accurate and well buffered FFAu concentrations. To calibrate probes with substantially higher affinities than used in U.S. Pat. No. 7,601,510 and (Huber et al Biochemistry (2006) 45:14263-14274) a boot strap method is used in which a probe having higher affinities is calibrated with ADTFAB2. Such a probe is then used to generate FFA-BSA complexes with FFAu concentrations from 0.1 to 10 nM and these complexes are then used to calibrate other high affinity probes.
(§3) Probe calibration involves titrating the probes with either (i) un-buffered FFA or (ii) BSA-buffered FFA stocks. The un-buffered titrations involve measuring the R-value of a 1 μM probe solution as it is slowly titrated to saturation with small aliquots of a 100 to 250 μM FFA stock (Richieri G V et al. (1992) J Biol Chem 267: 23495-23501, Richieri G V et al. (1999) Mol Cell Biochem 192: 87-94). In this case, the total FFA concentration for each point in the titration is known and a nonlinear fit to the titration data yields the full set of fluorometric constants. In an un-buffered FFA titration, probe concentration is a key variable because the probe binds FFA, directly affecting the FFAu value.
(§4) Alternatively, in a BSA-buffered FFA calibration, the probe solution is titrated with a series of FFA-BSA complexes (600 μM BSA with [FFAu] ranging from 0.1 nM to 4 μM). The titration samples are FFA-BSA complex diluted 50-fold in Measuring Buffer. Probe is added to a concentration of 0.5 μM and the R-value is measured. Because BSA buffers FFAu, its concentration remains constant (i.e. known), even after the addition of probe. […] At least two calibrations with each of the up to 15 different FFA are performed for each probe.
(§5) All of the probes reveal substantial differences for different FFAu and in many cases these differences are related to the aqueous solubility of the FFA. For example, of the FFA in Table 3, SA is the least soluble and MA the most soluble. As discussed in (Richieri G V et al (2000) Biochemistry 39: 7197-7204) the tendency of natural proteins and FABPs, in particular, is for binding constants to be largest (smallest Kd) for the least soluble FFA and conversely for the most soluble FA. In two cases, ADIFAB2 and L11, Kd for SA is substantially the smallest and MA the largest and that pattern is more or less maintained for most of the other probes in Table3 with the exception of L83. In that case MA has the largest affinity while SA's more than 10 fold smaller. To some extent the other calibrations constants follow that behavior; Q is largest for the smallest Kd and Rmax is often largest, so that the probe response tends to be larger for FFA with the larger affinities. The ability to generate mutations that overcome the “natural thermodynamics” allows for probes that have a wide range of specificities and sensitivities than enable the determination of FFAu profiles.

[3] = Probe calibration by titration with FFA / FFA-BSA complexes: PA; type: binding; details: equilibrium dissociation constant of probe for PA
Protocol: as §1, §2, §3, §4, §5

[4] = Probe calibration by titration with FFA / FFA-BSA complexes: LA; type: binding; details: equilibrium dissociation constant of probe for LA
Protocol: as §1, §2, §3, §4, §5

[5] = Probe calibration by titration with FFA / FFA-BSA complexes: MA; type: binding; details: equilibrium dissociation constant of probe for MA
Protocol: as §1, §2, §3, §4, §5

[6] = Probe response (increase in R) to 1 nM SA; type: binding; details: 1 nM of SA, FIG. 1
Text: The set of probes chosen to determine the profile of a sample depends upon the nature of the sample, the types of FFA expected to be present in the sample and the determination that the chosen probes respond to the expected FFA. In addition, especially for the least abundant FFAu in a sample, the probe's sensitivity for a given FFAu must be sufficient to accurately quantitate the low concentration FFAu, for example less than 50 pM. Sensitivity is a function of the Kd, Q, Ro and Rm parameters. Differences in sensitivity among different FFAu probes are apparent in FIG. 1 where for example for ADIFAB2 (acrylodan labeled at lysine 27), 1 nM of SA produces a 20% increase in R while for L11P7B3V26C the increases is almost 500%. […] In the absence of absolutely specific and sensitive probes the determination of FFAu profiles requires an over determined system, which empirically requires about twice the number of probes as FFAu to obtain accurate profiles. The identity of the set of probes to achieve accurate FFAu profiles is not unique. […]
The response profile is the fluorescence change as evaluated as (R−Ro)/Ro (ΔR/Ro) for each FFAu added as a complex of the FFA and albumin so that the FFAu concentration is clamped or buffered at 1 nM for every FFAu for which a calibration has been performed. […]

[7] = Probe calibration by titration with FFA / FFA-BSA complexes: DHA; type: binding; details: equilibrium dissociation constant of probe for DHA
Protocol: as §1, §2, §3, §4, §5

[8] = Probe calibration by titration with FFA / FFA-BSA complexes: OA; type: binding; details: equilibrium dissociation constant of probe for OA
Protocol: as §1, §2, §3, §4, §5

[9] = Probe calibration by titration with FFA / FFA-BSA complexes: AA; type: binding; details: equilibrium dissociation constant of probe for AA
Protocol: as §1, §2, §3, §4, §5

[10] = Probe calibration by titration with FFA / FFA-BSA complexes: POA; type: binding; details: equilibrium dissociation constant of probe for POA
Protocol: as §1, §2, §3, §4, §5

[11] = Probe calibration by titration with FFA / FFA-BSA complexes: LNA; type: binding; details: equilibrium dissociation constant of probe for LNA
Protocol: as §1, §2, §3, §4, §5

Sequence of human serum albumin (P02768 25-609): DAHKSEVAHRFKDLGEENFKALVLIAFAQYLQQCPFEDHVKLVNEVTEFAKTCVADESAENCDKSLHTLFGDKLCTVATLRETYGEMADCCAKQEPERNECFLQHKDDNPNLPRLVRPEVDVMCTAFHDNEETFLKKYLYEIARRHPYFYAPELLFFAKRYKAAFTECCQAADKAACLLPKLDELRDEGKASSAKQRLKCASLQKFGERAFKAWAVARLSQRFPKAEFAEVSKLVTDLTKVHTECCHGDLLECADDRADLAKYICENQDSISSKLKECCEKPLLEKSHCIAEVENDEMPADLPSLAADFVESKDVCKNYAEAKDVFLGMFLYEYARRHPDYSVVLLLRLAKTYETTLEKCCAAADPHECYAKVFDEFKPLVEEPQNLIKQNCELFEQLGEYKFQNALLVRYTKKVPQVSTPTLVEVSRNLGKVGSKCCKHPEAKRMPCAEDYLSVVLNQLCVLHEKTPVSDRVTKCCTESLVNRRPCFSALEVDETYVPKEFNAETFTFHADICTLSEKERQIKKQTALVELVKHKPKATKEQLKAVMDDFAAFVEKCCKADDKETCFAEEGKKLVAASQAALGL

Molecule: O=C(O)c1cccnc1 [NA, nicotinic acid]
- AA fraction of FFAu profile [1]: ~50%
- baseline OA [1]: zero
- total FFAu ([1]; sum of 9 resolved FFAu, averages of 7 animals): 2 nM
- reduction of total FFAu ([1]; versus saline, no infused oil): more than 4 fold

- % FFAu (human serum albumin): 16.9%
Molecule: CCCCCC/C=C\CCCCCCCC(=O)O [POA, palmitoleate]

- Kd [2]: 9.3 nM
- Kd [3]: 21.4 nM
- Kd [4]: 101 nM
- Kd [5]: 324 nM
- Kd [7]: 253 nM
- Kd [8]: 32 nM
- Kd [9]: 167 nM
- Kd [10]: 257 nM
- Kd [11]: 237 nM
B1: ADIFAB2: acrylodan-labeled (lysine 27) mutant FABP probe: L72A (protein, UniProt P02693 2-132, looked up, variant L72A)
Fatty acid-binding protein, …: AFDGTWKVDRNENYEKFMEKMGINVVKRKLGAHDNLKLTITQEGNKFTVKESSNFRNIDVVFELGVDFAYSAADGTELTGTWTMEGNKLVGKFKRVDNGKELIAVREISGNELIQTYTYEGVEAKRIFKKE
modifications: acrylodan label on K27
notes: acrylodan-labeled (lysine 27) mutant FABP probe: L72A
- increase in R [6]: 20%
